Key:
[1] = test system: alternative pathway (AP) of complement; settings: NHS in calcium-free buffer (GVB/MgEGTA)
Method: As a ligand for AP activation, LPS was coated at 10 μg/ml. LPS from Salmonella typhosa was obtained from Sigma (L-6386), dissolved in PBS at 1.6 mg/ml and stored at −20° C. Plates were blocked by using 1% BSA in PBS. Serum samples were diluted in GVB/MgEGTA (VBS containing 10 mM EGTA, 5 mM MgCl2, 0.05% Tween-20, and 0.1% gelatin; pH 7.5) and incubated in the plate for 1 hour at 37° C. Complement binding was assessed by using dig-conjugated mAb directed against C4 and C3 followed by the detection of mAb binding by using HRP-conjugated sheep anti-dig antibodies.
In order to enable the detection of all complement activation pathways in one assay system, the activation of the alternative pathway in an ELISA system was also studied. […] Therefore, a calcium-free buffer was used, thus excluding involvement of the CP and the LP.

[2] = target: T1, C1q (Homo sapiens, UniProt P02745+P02746+P02747); settings: cited from earlier work
[3] = test system: classical complement pathway; settings: several in vitro assays; cited from earlier work
[4] = target: T1, C1q; parameters: Human C1q was isolated from human donor plasma exactly as described previously; from tissue; host or cells: human donor plasma; settings: cited from earlier work
[5] = target: T1, C1q; parameters: Human C1q was isolated from human donor plasma exactly as described previously; from tissue; host or cells: human donor plasma; settings: cited from earlier work; remark: listed apart in the source
[6] = test system: classical pathway (CP) of complement; test: Classical pathway ELISA: complement activation by NHS on immobilized IgM; type: biochemical, human; settings: FIG. 3C; C1q-depleted NHS 1/400, purified C1q 0.5 μg/ml
Method: Anti-C1q antibodies were tested for their ability to inhibit the CP of complement by using immobilized IgM as a specific activator of the CP. […] These antibodies were tested for their effect on complement activation induced by immobilized mannan.
As a ligand for CP activation, human IgM was coated at 2 μg/ml. After blocking of residual binding sites, serum samples, diluted in GVB++, were added to the plate and incubated for 1 hour at 37° C.
The complement activation cascade was further studied by using mAb to detect binding of specific complement components upon their activation via the CP and the LP, respectively. […] Therefore, addition of mAb 2004 to serum allows the specific detection of LP activation by using mannan as ligand without any interference of the CP.

[7] = test system: lectin pathway (LP) of complement; test: Lectin pathway ELISA: complement activation by NHS on immobilized mannan; type: biochemical, human; settings: FIG. 3C; C1q-depleted NHS 1/400, purified C1q 0.5 μg/ml
Method: Functional activity of the lectin pathway was assessed with ELISA by using immobilized mannan as a ligand. Mannan was obtained from Sigma from Saccharomyces cerevisiae; M7504), dissolved in PBS (10 mg/ml) and stored at −20° C. Nunc Maxisorb plates (Nunc, Roskilde, Denmark) were coated with mannan (100 μg/ml) in coating buffer (100 mM Na2CO3/NaHCO3, pH 9.6) for 16 hours at room temperature or for 2 hours at 37° C. After each step, the plates were washed three times with PBS containing 0.05% Tween 20. Residual binding sites were blocked by incubation for one hour at 37° C. with PBS containing 1% BSA. […] This mixture was pre-incubated for 15 minutes on ice, before addition to the plates. […] Complement binding was detected by using mouse mAb conjugated to digoxygenin (dig) by using digoxygenin-3-O-methylcarbonyl-ε-aminocaproic acid-N-hydroxysuccinimide ester (from Boehringer Mannheim, Mannheim, Germany) according to instructions provided by the manufacturer. […] Binding of mAb was detected by using dig-conjugated sheep anti-mouse antibodies (Fab fragments) followed by HRP-conjugated sheep anti-dig antibodies (Fab fragments, both from Boehringer Mannheim). […] Enzyme activity of HRP was detected following incubation at room temperature for 30-60 min with 2,2′-azino-bis(3-ethylbenzthiazoline-6-sulfonic acid) (from Sigma; 2.5 mg/ml in 0.1 M citrate/Na2HPO4 buffer, pH 4.2) in the presence of 0.01% H2O2. […]

[8] = target: T1, C1q; test: C1q-dependent hemolytic assay; type: cell-based; parameters: Human C1q was isolated from human donor plasma exactly as described previously; from tissue; host or cells: human donor plasma
Method: (Roos A., et al., J. Immunol. 167, 7052-7059, 2001).
For the preparation of C1q-depleted serum, undiluted normal human EDTA plasma (obtained from a donor with the MBL/AA genotype) was applied on column consisting of Biogel A5 (from Biorad) coupled to rabbit IgG anti-human C1q. The column was washed by using Veronal-buffered saline (VBS; 1.8 mM Na-5,5-diethylbarbital, 0.2 mM 5,5-diethylbarbituric acid, 145 mM NaCl) containing 10 mM EDTA. Fractions were tested in a C1q-dependent hemolytic assay in the absence or presence of purified C1q. […] After recalcification, C1q-depleted serum was stored at −80° C.

T1 sequence (P02745 23-245): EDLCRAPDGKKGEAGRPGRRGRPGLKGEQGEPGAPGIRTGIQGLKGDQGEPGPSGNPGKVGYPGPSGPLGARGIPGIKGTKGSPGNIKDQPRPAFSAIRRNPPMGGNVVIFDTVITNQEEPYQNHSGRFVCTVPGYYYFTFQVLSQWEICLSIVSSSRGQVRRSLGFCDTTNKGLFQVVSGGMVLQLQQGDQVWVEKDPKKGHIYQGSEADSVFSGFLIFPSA
T1 sequence (P02746 28-253): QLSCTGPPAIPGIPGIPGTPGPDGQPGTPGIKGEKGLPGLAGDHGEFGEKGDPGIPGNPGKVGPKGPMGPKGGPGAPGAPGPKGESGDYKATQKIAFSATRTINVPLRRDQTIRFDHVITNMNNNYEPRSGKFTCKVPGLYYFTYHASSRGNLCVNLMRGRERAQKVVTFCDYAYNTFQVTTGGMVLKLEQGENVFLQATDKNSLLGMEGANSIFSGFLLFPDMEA
T1 sequence (P02747 29-245): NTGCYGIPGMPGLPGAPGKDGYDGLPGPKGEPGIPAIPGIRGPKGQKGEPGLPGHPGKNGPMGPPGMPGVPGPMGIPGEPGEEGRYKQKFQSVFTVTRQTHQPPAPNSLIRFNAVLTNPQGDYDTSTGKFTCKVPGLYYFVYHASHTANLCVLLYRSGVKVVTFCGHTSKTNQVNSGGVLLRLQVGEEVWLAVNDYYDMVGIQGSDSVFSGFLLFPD

Row | Molecule | Mechanism of C1 inhibition [2] | other results
1 | O=C(O)CN(CCN(CC(=O)O)CC(=O)O)CC(=O)O [EDTA] | – | Detection of C3 when present in the complement source [1]: reduced until background levels
2 | AEAKAKA | Inhibits C1q ligand binding | Inhibition of activation of the classical complement pathway [3]: able to inhibit
3 | C1 inhibitor: plasma serine protease inhibitor | Inhibits C1r and C1s activity | –
4 | CEGPFGPRHDLTFCW [Peptide 2J] | Binds C1q head, inhibits | Inhibition of C1q-dependent hemolysis / C1q hemolytic function [4]: strong inhibitor; Inhibition of binding of C1q to IgG [5]: inhibits
5 | KDIRCKDD | Inhibits C1q ligand binding | –
6 | LEQGENVFLQATLL [Peptide CBP2] | Acts as a competitor for C1q | –
7 | Surfactant protein A: collectin present in the lung | Inhibits C1q ligand binding | –
8 | VQVHNAKTKPR | – | Inhibition of activation of the classical complement pathway [3]: able to inhibit
9 | human neutrophil peptide-1 [HNP-1] | Binds C1q tail and inhibits | –
10 | purified C1q: human C1q isolated from human donor plasma | – | C4 activation by IgM after reconstitution of C1q-depleted serum [6]: complete restoration; C4 activation by mannan after addition to C1q-depleted serum [7]: slightly inhibited; Restoration of lysis of antibody-coated erythrocytes induced by C1q-depleted human serum [8]: completely restore
11 | Calreticulin (protein, UniProt P27797 18-417, looked up) Calreticulin: EPAVYFKEQFLDGDGWTSRWIESKHKSDFGKFVLSSGKFYGDEEKDKGLQTSQDARFYALSASFEPFSNKGQTLVVQFTVKHEQNIDCGGGYVKLFPNSLDQTDMHGDSEYNIMFGPDICGPGTKKVHVIFNYKGKNVLINKDIRCKDDEFTHLYTLIVRPDNTYEVKIDNSQVESGSLEDDWDFLPPKKIKDPDASKPEDWDERAKIDDPTDSKPEDWDKPEHIPDPDAKKPEDWDEEMDGEWEPPVIQNPEYKGEWKPRQIDNPDYKGTWIHPEIDNPEYSPDPSIYAYDNFGVLGLDLWQVKSGTIFDNFLITNDEAYAEEFGNETWGVTKAAEKQMKDKQDEEQRLKEEEEDKKRKEEEEAEDKEDDEDKDEDEEDEEDKEEDEEEDVPGQAKDEL | – | Inhibition of C1q-dependent hemolysis / C1q hemolytic function [4]: inhibit
12 | gC1qR: globular C1q receptor, binds specifically to the globular head of C1q (protein, UniProt Q07021 74-282, looked up) Complement component 1 Q …: LHTDGDKAFVDFLSDEIKEERKIQKHKTLPKMSGGWELELNGTEAKLVRKVAGEKITVTFNINNSIPPTFDGEEEPSQGQKVEEQEPELTSTPNFVVEVIKNDDGKKALVLDCHYPEDEVGQEDEAESDIFSIREVSFQSTGESEWKDTNYTLNTDSLDWALYDHLMDFLADRGVDNTFADELVELSTALEHQEYITFLEDLKSFVKSQ | Binds C1q head | –
13 | Decorin: dermatan sulfate proteoglycan, a constituent of the extracellular matrix (protein, UniProt P07585 31-359, looked up) Decorin: DEASGIGPEVPDDRDFEPSLGPVCPFRCQCHLRVVQCSDLGLDKVPKDLPPDTTLLDLQNNKITEIKDGDFKNLKNLHALILVNNKISKVSPGAFTPLVKLERLYLSKNQLKELPEKMPKTLQELRAHENEITKVRKVTFNGLNQMIVIELGTNPLKSSGIENGAFQGMKKLSYIRIADTNITSIPQGLPPSLTELHLDGNKISRVDAASLKGLNNLAKLGLSFNSISAVDNGSLANTPHLRELHLDNNKLTRVPGGLAEHKYIQVVYLHNNNISVVGSSDFCPPGHNTKKASYSGVSLFSNPVQYWEIQPSTFRCVYVRSAIQLGNYK | Binds to C1q head | –
